This is an account of results in publication PMC3673036 (Bioscience Reports, 2013).

The Km is the substrate concentration at which the rate is half of its maximum. By kcat is commonly meant the maximal rate divided by the concentration of active sites.

In series [1] the target is T1, EphB2 (Homo sapiens, UniProt P29323).
T1 construct: kinase domain 604-898 without juxtamembrane region; N-terminal His6-TEV tag cleaved (GSS left); E. coli BL21 Star (DE3), PTP1B co-expressed; unphosphorylated; synthetic codon-optimized gene
T1 sequence (P29323 604-898): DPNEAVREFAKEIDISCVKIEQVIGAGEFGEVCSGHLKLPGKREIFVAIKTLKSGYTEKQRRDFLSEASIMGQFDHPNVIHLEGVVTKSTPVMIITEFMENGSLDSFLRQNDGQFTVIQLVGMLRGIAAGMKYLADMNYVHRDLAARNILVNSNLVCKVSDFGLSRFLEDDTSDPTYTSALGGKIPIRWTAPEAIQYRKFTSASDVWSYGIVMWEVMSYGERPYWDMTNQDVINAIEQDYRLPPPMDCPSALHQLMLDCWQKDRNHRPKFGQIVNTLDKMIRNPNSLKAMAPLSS
Kind of series: ADP-Glo luminescent kinase assay. In kind it is biochemical. The following applies: ATP and poly-(Glu:Tyr) […] at Km of each kinase; MgCl2, Hepes pH […]°C, […] min, […] DMSO; unreliable: below assay tight binding limit of about […]. From the text: ADP-Glo luminescent kinase assay on EphB2
On the technique in general: ADP-Glo first removes unused ATP, then detects ADP through luciferase.

The next series deals with T2, EphB1 (Homo sapiens, UniProt P54762).
T2 construct: kinase domain 602-896 without juxtamembrane region; N-terminal His6-TEV tag cleaved (GSS left); E. coli BL21 Star (DE3), PTP1B co-expressed; unphosphorylated; synthetic codon-optimized gene
T2 sequence (P54762 602-896): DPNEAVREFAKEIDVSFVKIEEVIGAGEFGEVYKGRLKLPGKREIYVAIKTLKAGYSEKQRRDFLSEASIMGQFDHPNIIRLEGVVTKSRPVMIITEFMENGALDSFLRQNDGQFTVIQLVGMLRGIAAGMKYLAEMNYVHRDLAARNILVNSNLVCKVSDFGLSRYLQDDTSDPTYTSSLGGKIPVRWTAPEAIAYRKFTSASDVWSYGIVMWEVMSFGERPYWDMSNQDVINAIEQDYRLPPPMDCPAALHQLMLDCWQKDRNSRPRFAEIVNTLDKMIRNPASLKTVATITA
Briefly: ADP-Glo luminescent kinase assay. Format: biochemical. The following applies: ATP and poly-(Glu:Tyr) […] at Km of each kinase; MgCl2, Hepes pH […]°C, […] min, […] DMSO; unreliable: below assay tight binding limit of about […]. From the text:
ADP-Glo luminescent kinase assay on EphB1

The target in series [2] is T1, EphB2. Kind of series: ADP-Glo luminescent kinase assay, Michaelis-Menten fit. Conditions: […] poly-(Glu:Tyr) […], MgCl2, Hepes pH […]°C; read-out: Km ATP. In kind it is biochemical. From the text:
ADP-Glo luminescent kinase assay, Michaelis-Menten fit on EphB2

Substrate in series [3]: Nc1ncnc2c1ncn2[C@@H]1O[C@H](COP(=O)(O)OP(=O)(O)OP(=O)(O)O)[C@@H](O)[C@H]1O
The series is described as above. In kind it is biochemical, Homo sapiens. Conditions: […] poly-(Glu:Tyr) […], MgCl2, Hepes pH […]. The source says: ADP-Glo luminescent kinase assay, Michaelis-Menten fit on EphB3

Substrate in series [4]: Nc1ncnc2c1ncn2[C@@H]1O[C@H](COP(=O)(O)OP(=O)(O)OP(=O)(O)O)[C@@H](O)[C@H]1O
Described as above. In kind it is biochemical, Homo sapiens. Conditions: […] poly-(Glu:Tyr) […], MgCl2, Hepes pH […]. The source says: ADP-Glo luminescent kinase assay, Michaelis-Menten fit on EphB4
This is another data set of the same source.

Substrate in series [5]: Nc1ncnc2c1ncn2[C@@H]1O[C@H](COP(=O)(O)OP(=O)(O)OP(=O)(O)O)[C@@H](O)[C@H]1O
Described as above. In kind it is biochemical, Homo sapiens. Conditions: […] poly-(Glu:Tyr) […], MgCl2, Hepes pH […]. From the text: ADP-Glo luminescent kinase assay, Michaelis-Menten fit on EphB1
The source holds these as a separate data set.

As for `Cc1nc(Nc2ncc(C(=O)Nc3c(C)cccc3Cl)s2)cc(N2CCN(CCO)CC2)n1` [Dasatinib], the “EphB2 / IC50” value at EphB2 [1] stood at 7 nM. Also, at EphB1, the “EphB1 / IC50” value is 10 nM.
On to `Nc1ncnc2c1ncn2[C@@H]1O[C@H](COP(=O)(O)OP(=O)(O)OP(=O)(O)O)[C@@H](O)[C@H]1O` [ATP], for which, on EphB2 [2], the Michaelis constant (Km) stood at 751 ± 80 µM.

B1: EphB3 (Homo sapiens) (protein)
chain: DPNEAVREFAKEIDVSCVKIEEVIGAGEFGEVCRGRLKQPGRREVFVAIKTLKVGYTERQRRDFLSEASIMGQFDHPNIIRLEGVVTKSRPVMILTEFMENCALDSFLRLNDGQFTVIQLVGMLRGIAAGMKYLSEMNYVHRDLAARNILVNSNLVCKVSDFGLSRFLEDDPSDPTYTSSLGGKIPIRWTAPEAIAYRKFTSASDVWSYGIVMWEVMSYGERPYWDMSNQDVINAVEQDYRLPPPMDCPTALHQLMLDCWVRDRNLRPKFSQIVNTLDKLIRNAASLKVIASAQS
notes: kinase domain 616-910 without juxtamembrane region; N-terminal His6-TEV tag cleaved (GSS left); E. coli BL21 Star (DE3), PTP1B co-expressed; unphosphorylated; synthetic codon-optimized gene
Take B1: in series [3], the Km was determined as 506 ± 48 µM and the kcat stood at 0.43 ± 0.01 s⁻¹.

B2: EphB3 (Homo sapiens; C717G) (protein)
chain: DPNEAVREFAKEIDVSCVKIEEVIGAGEFGEVCRGRLKQPGRREVFVAIKTLKVGYTERQRRDFLSEASIMGQFDHPNIIRLEGVVTKSRPVMILTEFMENGALDSFLRLNDGQFTVIQLVGMLRGIAAGMKYLSEMNYVHRDLAARNILVNSNLVCKVSDFGLSRFLEDDPSDPTYTSSLGGKIPIRWTAPEAIAYRKFTSASDVWSYGIVMWEVMSYGERPYWDMSNQDVINAVEQDYRLPPPMDCPTALHQLMLDCWVRDRNLRPKFSQIVNTLDKLIRNAASLKVIASAQS
notes: as for B1
On to B2, for which, in series [3], the Michaelis-Menten constant (Km) is 659 ± 67 µM and the kcat was 0.86 ± 0.03 s⁻¹.

B3: EphB4 (Homo sapiens) (protein)
chain: DPNEAVREFAKEIDVSYVKIEEVIGAGEFGEVCRGRLKAPGKKESCVAIKTLKGGYTERQRREFLSEASIMGQFEHPNIIRLEGVVTNSMPVMILTEFMENGALDSFLRLNDGQFTVIQLVGMLRGIASGMRYLAEMSYVHRDLAARNILVNSNLVCKVSDFGLSRFLEENSSDPTYTSSLGGKIPIRWTAPEAIAFRKFTSASDAWSYGIVMWEVMSFGERPYWDMSNQDVINAIEQDYRLPPPPDCPTSLHQLMLDCWQKDRNARPRFPQVVSALDKMIRNPASLKIVARENG
notes: kinase domain 598-892 without juxtamembrane region; N-terminal His6-TEV tag cleaved (GSS left); E. coli BL21 Star (DE3), PTP1B and GroES/GroEL co-expressed; unphosphorylated; synthetic codon-optimized gene
Turning to B3, in series [4], the Km is 497 ± 39 µM and the catalytic constant (kcat) stood at 0.51 ± 0.01 s⁻¹.

B4: EphB1 (Homo sapiens) (protein)
chain: DPNEAVREFAKEIDVSFVKIEEVIGAGEFGEVYKGRLKLPGKREIYVAIKTLKAGYSEKQRRDFLSEASIMGQFDHPNIIRLEGVVTKSRPVMIITEFMENGALDSFLRQNDGQFTVIQLVGMLRGIAAGMKYLAEMNYVHRDLAARNILVNSNLVCKVSDFGLSRYLQDDTSDPTYTSSLGGKIPVRWTAPEAIAYRKFTSASDVWSYGIVMWEVMSFGERPYWDMSNQDVINAIEQDYRLPPPMDCPAALHQLMLDCWQKDRNSRPRFAEIVNTLDKMIRNPASLKTVATITA
notes: kinase domain 602-896 without juxtamembrane region; N-terminal His6-TEV tag cleaved (GSS left); E. coli BL21 Star (DE3), PTP1B co-expressed; unphosphorylated; synthetic codon-optimized gene
Regarding B4, in series [5], the Km came out at 555 ± 36 µM and the catalytic constant (kcat) turned out to be 0.80 ± 0.02 s⁻¹.
